Measured values: the supplement of paper PMC10567573

B1: ANKRD40 (parent)
chain: VCCCELGVNPDQVEKIRKLPNTLL
B2: PPFIA4 (parent)
chain: YAGNLHESGVHGALLALDENFDHN

Variants of: B1
Assay: protein stability index of a GFP-peptide fusion (GPS, HEK-293T) (PSI 1-6); higher = more stable
Conditions: c terminus: a fixed tail appended
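Note: lentivirally expressed fusions sorted by FACS into six bins by GFP to DsRed ratio, PSI derived from sequencing read proportions per bin multiplied by bin number.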

Variant	protein stability index
PCCCELGVNPDQVEKIRKLPNTLL [V1P]	1.41
MCCCELGVNPDQVEKIRKLPNTLL [V1M]	2
FCCCELGVNPDQVEKIRKLPNTLL [V1F]	1.5
RCCCELGVNPDQVEKIRKLPNTLL [V1R]	1.99
YCCCELGVNPDQVEKIRKLPNTLL [V1Y]	1.85
HCCCELGVNPDQVEKIRKLPNTLL [V1H]	2.21
KCCCELGVNPDQVEKIRKLPNTLL [V1K]	2.35
ICCCELGVNPDQVEKIRKLPNTLL [V1I]	1.2
VCCCELWVNPDQVEKIRKLPNTLL [G7W]	1.51
VCCCELAVNPDQVEKIRKLPNTLL [G7A]	2.02
VCCCELLVNPDQVEKIRKLPNTLL [G7L]	2.3
VCCCELIVNPDQVEKIRKLPNTLL [G7I]	2.45
VCCCELQVNPDQVEKIRKLPNTLL [G7Q]	2.02
VCCCELNVNPDQVEKIRKLPNTLL [G7N]	1.43
VCCCELKVNPDQVEKIRKLPNTLL [G7K]	2.42
VCCCELCVNPDQVEKIRKLPNTLL [G7C]	2.6
VCCCELPVNPDQVEKIRKLPNTLL [G7P]	1.76
VCCCELDVNPDQVEKIRKLPNTLL [G7D]	1.96
VCCCELYVNPDQVEKIRKLPNTLL [G7Y]	1.88
VCCCELRVNPDQVEKIRKLPNTLL [G7R]	1.78

Variant	protein stability index
VCCCELMVNPDQVEKIRKLPNTLL [G7M]	1.7
VCCCELSVNPDQVEKIRKLPNTLL [G7S]	1.72
VCCCELHVNPDQVEKIRKLPNTLL [G7H]	2.45
VCCCELEVNPDQVEKIRKLPNTLL [G7E]	2.13
VCCCELFVNPDQVEKIRKLPNTLL [G7F]	2.27
VCCCELTVNPDQVEKIRKLPNTLL [G7T]	2.85
VYCCELGVNPDQVEKIRKLPNTLL [C2Y]	2.6
VGCCELGVNPDQVEKIRKLPNTLL [C2G]	2.73
VPCCELGVNPDQVEKIRKLPNTLL [C2P]	3.22
VVCCELGVNPDQVEKIRKLPNTLL [C2V]	3.24
VTCCELGVNPDQVEKIRKLPNTLL [C2T]	2.72
VSCCELGVNPDQVEKIRKLPNTLL [C2S]	2.76
VQCCELGVNPDQVEKIRKLPNTLL [C2Q]	3.56
VMCCELGVNPDQVEKIRKLPNTLL [C2M]	2.4
VNCCELGVNPDQVEKIRKLPNTLL [C2N]	2.7
VECCELGVNPDQVEKIRKLPNTLL [C2E]	3.52
VWCCELGVNPDQVEKIRKLPNTLL [C2W]	1.45
VFCCELGVNPDQVEKIRKLPNTLL [C2F]	1.9
VDCCELGVNPDQVEKIRKLPNTLL [C2D]	3.2
VACCELGVNPDQVEKIRKLPNTLL [C2A]	2.85

Variant	protein stability index
VHCCELGVNPDQVEKIRKLPNTLL [C2H]	2.65
VLCCELGVNPDQVEKIRKLPNTLL [C2L]	2.04
VICCELGVNPDQVEKIRKLPNTLL [C2I]	1.62
VKCCELGVNPDQVEKIRKLPNTLL [C2K]	2.63
VCCCSLGVNPDQVEKIRKLPNTLL [E5S]	2.81
VCCCGLGVNPDQVEKIRKLPNTLL [E5G]	1.33
VCCCALGVNPDQVEKIRKLPNTLL [E5A]	1.84
VCCCHLGVNPDQVEKIRKLPNTLL [E5H]	2.82
VCCCQLGVNPDQVEKIRKLPNTLL [E5Q]	1.71
VCCCDLGVNPDQVEKIRKLPNTLL [E5D]	1.89
VCCCVLGVNPDQVEKIRKLPNTLL [E5V]	1.18
VCCCCLGVNPDQVEKIRKLPNTLL [E5C]	1.1
VCCCRLGVNPDQVEKIRKLPNTLL [E5R]	1.47
VCCCKLGVNPDQVEKIRKLPNTLL [E5K]	2.22
VCCCMLGVNPDQVEKIRKLPNTLL [E5M]	1.32
VCCCLLGVNPDQVEKIRKLPNTLL [E5L]	2.28
VCCCYLGVNPDQVEKIRKLPNTLL [E5Y]	2.68
VCCCFLGVNPDQVEKIRKLPNTLL [E5F]	3.32
VCCCPLGVNPDQVEKIRKLPNTLL [E5P]	2.17
VCCCNLGVNPDQVEKIRKLPNTLL [E5N]	1.97

Variants of: B2
Assay: as above
Conditions: c terminus: a fixed tail appended

Variant	protein stability index
YAGNLHESGVHGALLALDENFDLN [H23L]	2.34
YAGNLHESGVHGALLALDENFDFN [H23F]	2.12
YAGNLHESGVHGALLALDENFDNN [H23N]	2.63
YAGNLHESGVHGALLALDENFDKN [H23K]	2.53
YAGNLHESGVHGALLALDENFDYN [H23Y]	2.43
YAGNLHESGVHGALLALDENFDPN [H23P]	2.81
YAGNLHESGVHGALLALDENFDRN [H23R]	2.47
YAGNLHESGVHGALLALDENFDMN [H23M]	2.19
YAGNLHESGVHGALLALDENFDGN [H23G]	2.46
YAGNLHESGVHGALLALDENFDQN [H23Q]	2.22
YAGNLHESGVHGALLALDENFDWN [H23W]	2.07
YAGNLHESGVHGALLALDENFDIN [H23I]	2.23
YAGNLHESGVHGALLALDENFDTN [H23T]	2.61
YAGNLHESGVHGALLALDENFDVN [H23V]	2.63
YAGNLHESGVHGALLALDENFDSN [H23S]	2.19
YAGNLHESGVHGALLALDENFDHI [N24I]	2.27
YAGNLHESGVHGALLALDENFDHW [N24W]	2.01

Variant	protein stability index
YAGNLHESGVHGALLALDENFDHM [N24M]	1.92
YAGNLHESGVHGALLALDENFDHC [N24C]	2.58
YAGNLHESGVHGALLALDENFDHR [N24R]	1.9
YAGNLHESGVHGALLALDENFDHY [N24Y]	2.47
YAGNLHESGVHGALLALDENFDHK [N24K]	2.02
YAGNLHESGVHGALLALDENFDHS [N24S]	2.41
YAGNLHESGVHGALLALDENFDHD [N24D]	2.46
YAGNLHESGVHGALLALDENFDHT [N24T]	2.42
YAGNLHESGVHGALLALDENFDHQ [N24Q]	2.69
YAGNLHESGVHGALLALDENFDHP [N24P]	2.39
YAGNLHESGVHGALLALDENFDHF [N24F]	2.01
YAGNLHESGVHGALLALDENFDHA [N24A]	2.69
YAGNLHESGVHGALLALDENFDHV [N24V]	1.95
YAGNLHESGVHGALLALDENFDHL [N24L]	2.28
YAGNLHESGVHGALLALDENFDHE [N24E]	3.49
YAGNLHESGVHGALLALDENFDHG [N24G]	2.13
YAGNLHESGVHGALLALDENFDHH [N24H]	1.9
